Substrate in this data set: O=P(O)(O)OP(=O)(O)O
The experiment in a line: purified protein. It counts as biochemical, Thermococcus onnurineus. The conditions noted are these: Mg2+, 90 °C, pH 9, pyrophosphate 0.05–1.0 mM, unit mM doubtful (M would fit the substrate range).

B1: Ton1914 (Thermococcus onnurineus NA1) (protein)
chain: MNPFHELEPGPEVPEVVYALIEIPKGSRNKYELDKKTGLLKLDRVLYSPFFYPVDYGIIPQTWYDDGDPFDIMVIMREPVYPLTIVEARPIGIMKMEDSGDKDWKVLAVPVEDPYFNDWKDIDDVPKAFLDEIAHFFQRYKELQGKVTTVEGWGTAEEAKREILRAIEMYKEKFGKKE
notes: pET28a-Ton1914 expressed in E. coli BL21(DE3); heat-treated (80 °C) supernatant concentrated by ultrafiltration
Take B1: the Km is 3.03 ± 0.18 × 10^−4 mM.

B2: Ton1914 (Thermococcus onnurineus NA1; E97Y) (protein)
chain: MNPFHELEPGPEVPEVVYALIEIPKGSRNKYELDKKTGLLKLDRVLYSPFFYPVDYGIIPQTWYDDGDPFDIMVIMREPVYPLTIVEARPIGIMKMYDSGDKDWKVLAVPVEDPYFNDWKDIDDVPKAFLDEIAHFFQRYKELQGKVTTVEGWGTAEEAKREILRAIEMYKEKFGKKE
notes: as for B1
Regarding B2, the Km is recorded as 5.94 ± 0.14 × 10^−4 mM.

B3: Ton1914 (Thermococcus onnurineus NA1; E97Y/L42F) (protein)
chain: MNPFHELEPGPEVPEVVYALIEIPKGSRNKYELDKKTGLLKFDRVLYSPFFYPVDYGIIPQTWYDDGDPFDIMVIMREPVYPLTIVEARPIGIMKMYDSGDKDWKVLAVPVEDPYFNDWKDIDDVPKAFLDEIAHFFQRYKELQGKVTTVEGWGTAEEAKREILRAIEMYKEKFGKKE
notes: as for B1
As for B3, the Km is 8.49 ± 0.30 × 10^−4 mM.

B4: Ton1914 (Thermococcus onnurineus NA1; D101K) (protein)
chain: MNPFHELEPGPEVPEVVYALIEIPKGSRNKYELDKKTGLLKLDRVLYSPFFYPVDYGIIPQTWYDDGDPFDIMVIMREPVYPLTIVEARPIGIMKMEDSGKKDWKVLAVPVEDPYFNDWKDIDDVPKAFLDEIAHFFQRYKELQGKVTTVEGWGTAEEAKREILRAIEMYKEKFGKKE
notes: as for B1
Take B4: the Km is recorded as 1.03 ± 0.04 × 10^−4 mM.

B5: Ton1914 (Thermococcus onnurineus NA1; L42F) (protein)
chain: MNPFHELEPGPEVPEVVYALIEIPKGSRNKYELDKKTGLLKFDRVLYSPFFYPVDYGIIPQTWYDDGDPFDIMVIMREPVYPLTIVEARPIGIMKMEDSGDKDWKVLAVPVEDPYFNDWKDIDDVPKAFLDEIAHFFQRYKELQGKVTTVEGWGTAEEAKREILRAIEMYKEKFGKKE
notes: as for B1
In the case of B5, the Km was 3.18 ± 0.05 × 10^−4 mM.

B6: Ton1914 (Thermococcus onnurineus NA1; D101K/E97Y) (protein)
chain: MNPFHELEPGPEVPEVVYALIEIPKGSRNKYELDKKTGLLKLDRVLYSPFFYPVDYGIIPQTWYDDGDPFDIMVIMREPVYPLTIVEARPIGIMKMYDSGKKDWKVLAVPVEDPYFNDWKDIDDVPKAFLDEIAHFFQRYKELQGKVTTVEGWGTAEEAKREILRAIEMYKEKFGKKE
notes: as for B1
On to B6, for which the Km was 3.48 ± 0.27 × 10^−4 mM.

B7: Ton1914 (Thermococcus onnurineus NA1; D101K/L42F) (protein)
chain: MNPFHELEPGPEVPEVVYALIEIPKGSRNKYELDKKTGLLKFDRVLYSPFFYPVDYGIIPQTWYDDGDPFDIMVIMREPVYPLTIVEARPIGIMKMEDSGKKDWKVLAVPVEDPYFNDWKDIDDVPKAFLDEIAHFFQRYKELQGKVTTVEGWGTAEEAKREILRAIEMYKEKFGKKE
notes: as for B1
Turning to B7, the Km is on record as 6.34 ± 0.82 × 10^−4 mM.

Source of the values: publication PMC12562645, “Enhancement of Activity of Thermophilic Inorganic Pyrophosphatase Ton1914 via Site-Directed Mutagenesis” (Biomolecules, 2025).
